Drawing on patent US20120034161A1, “PRETARGETING KIT, METHOD AND AGENTS USED THEREIN” (KONINKLIJKE PHILIPS ELECTRONICS N.V., priority 2009, published 2012), this text covers 125I-mAb in tumor for one substance.

This data set concerns human colon cancer cell line LS174T. To be noted: mouse, in vivo.

Take “Rtx-TCO: TCO-modified rituximab for control in vivo experiments; lacks specificity for TAG72”: the 125I-mAb in tumor amounted to 6.3±1.2 % ID/g.
